Data reported in publication PMC8605023 (2021).

What was measured:
Assay in all cases: FP
NTF2 domain of G3BP1 = NTF2 domain of G3BP1 (human, UniProt Q13283 11-133)
NTF2 domain of G3BP2 = target: T1, NTF2 domain of G3BP2 (human, UniProt Q9UN86 11-133)
T1 chain: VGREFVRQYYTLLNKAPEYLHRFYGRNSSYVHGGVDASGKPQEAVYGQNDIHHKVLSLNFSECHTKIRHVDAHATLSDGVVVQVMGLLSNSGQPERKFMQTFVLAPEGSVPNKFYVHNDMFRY

[1] = target: MERS-CoV NSP14 peptide with the YxxL motif, synthetic (MERS-CoV, UniProt K9N7C7)
[2] = target: SARS-CoV-2 NSP14 peptide with the YxxL motif, synthetic (SARS-CoV-2, UniProt P0DTD1)
[3] = target: SARS-CoV NSP14 peptide with the YxxL motif, synthetic (SARS-CoV, UniProt P0C6X7)
SARS-CoV-2 E 1-16 = target: SARS-CoV-2 E 1-16
SARS-CoV E 1-16 = target: SARS-CoV E 1-16
SARS-CoV NSP3 2019-2038 = target: SARS-CoV NSP3 2019-2038
[4] = target: SARS-CoV-2 NSP3 2019-2038

Chain of NTF2 domain of G3BP1 (Q13283 11-133): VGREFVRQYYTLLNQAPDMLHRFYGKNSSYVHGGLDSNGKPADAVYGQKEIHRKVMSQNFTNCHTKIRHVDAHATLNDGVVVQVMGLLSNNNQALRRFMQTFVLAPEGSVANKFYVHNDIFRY

Binder APRAVSFADNNDITNT [MERS-CoV N peptide corresponding to the ΦxFG peptide, synthetic] has a Kd (NTF2 domain of G3BP1) of 51 µM and a Kd (NTF2 domain of G3BP2) of 26 µM.

B1: clathrin coat adaptor protein AP2M1, tag removed (domain or fragment)
chain: RNELFLDVLESVNLLMSPQGQVLSAHVSGRVVMKSYLSGMPECKFGMNDKIVIEKQGKGTADETSKSGKQSIAIDDCTFHQCVRLSKFDSERSISFIPPDGEFELMRYRTTKDIILPFRVIPLVREVGRTKLEVKVVIKSNFKPSLLAQKIEVRIPTPLNTSGVQVICMKGKAKYKASENAIVWKIKRMAGMKESQISAEIELLPTNDKKKWARPPISMNFEVPFAPSGLKVRYLKVFEPKLNYSDHDVIKWVRYIGRSGIYETR
With B1 the Kd [1] was 3 µM, the Kd [2] was 1.6 µM and the Kd [3] was 1.6 µM.

APRITFGGPSDSTGSN [SARS-CoV-2 N peptide with the ΦxFG motif, synthetic] showed a Kd (NTF2 domain of G3BP2) of 2.8 µM.

APRITFGGPTDSTDNN [SARS-CoV N peptide with the ΦxFG motif, synthetic] showed a Kd (NTF2 domain of G3BP1) of 2.8 µM and a Kd (NTF2 domain of G3BP2) of 1.7 µM.

B2: FERM domain of Radixin (domain or fragment)
chain: INVRVTTMDAELEFAIQPNTTGKQLFDQVVKTVGLREVWFFGLQYVDSKGYSTWLKLNKKVTQQDVKKENPLQFKFRAKFFPEDVSEELIQEITQRLFFLQVKEAILNDEIYCPPETAVLLASYAVQAKYGDYNKEIHKPGYLANDRLLPQRVLEQHKLTKEQWEERIQNWHEEHRGMLREDSMMEYLKIAQDLEMYGVNYFEIKNKKGTELWLGVDALGLNIYEHDDKLTPKIGFPWSEIRNISFNDKKFVIKPIDKKAPDFVFYAPRLRINKRILALCMGNHELYMRRR
With B2 the Kd (SARS-CoV-2 E 1-16) was 11.9 µM, the Kd (SARS-CoV E 1-16) was 11.9 µM and the Kd (SARS-CoV NSP3 2019-2038) was 217 µM. For the same binder, the Kd [4] was 38 µM.
